The nature of data set [1]: Static and dynamic light scattering (SLS/DLS) of block co-polypeptides. The class given is physicochemical. Conditions: for Nagg / Rg(nm) / Rh (nm) / ρ: Table 5; for Nagg / Rg(nm) / Rh (nm): 10 μM in PBS, 15 °C; for ρ: shape factor Rg/Rh. The protocol:
Key parameters of interest are the hydrophilicity of the corona-forming block, the hydrophilicity of the core block, the overall length of the co-polypeptide and the ratio of the two blocks. Parameters of evaluation are the size, morphology, stability, and thermoresponsive behavior. All measurements were made in 140 mM NaCl, 10 mM phosphate buffer, 3 mM KCl, pH 7.4 unless otherwise specified. Size was evaluated by the hydrodynamic radios (Rh) and radius of gyration (Rg) by dynamic light scattering (DLS) and static light scattering (SLS) respectively. Rg and Rh can be combined to yield the shape factor ρ=Rg/Rh, which provides a rough indication of the morphology of the scatterer. […] For an elongated scatterer, the shape factor depends upon the aspect ratio. A combination of temperature dependent turbidity and DLS was utilized to determine the phase behavior of the block co-polypeptides. Cryogenic transmission electron microscopy (Cryo-TEM) was utilized to evaluate the morphology and provide crucial insight into the hydration of the core/corona chains. Stability of the assembled nanostructure was determined by a shift in the I1/I3 fluorescent bands of pyrene as described previously.
Static and dynamic light scattering measurements (SLS/DLS) were performed using an ALV/CGS-3 goniometer system (Langen, Germany). Samples for the ALV/CGS-3 goniometer system were prepared at a concentration of 10 μM in PBS and filtered through 0.45 μm Millex-GV filters into a 10 mm disposable borosilicate glass tube (Fischer). Simultaneous SLS and DLS measurements were obtained at 15° C. of the ELP for angles between 30°-150° at 5° increments, with each angle consisting of 3 runs for 15 s. SLS experiments were only conducted for self-assembling block co-polypeptides, since the molecular weight of a single block co-polypeptide chain is already known, and the Rg of a single chain is likely near or below the detection limit of the SLS instrument. The differential refractive index (dn/dc) was determined by measuring the refractive index at different concentrations using an Abbemat 500 refractometer (Anton Paar, Graz, Austria). DLS data were analyzed by fitting the autocorrelation function with a cumulant fit, using the built-in ALV software. Hydrodynamic radius (Rh) was plotted against angle and extrapolated to zero. SLS data were analyzed by partial Zimm plots using ALVSTAT software in order to determine the Rg and molecular weight (MW).

A short description of data set [2]: Cryo-TEM micelle core size, inter-core spacing and aspect ratio. The class given is physicochemical. Conditions: Table 6, mean ± standard deviation; for Spacing (nm): inter-core spacing. The procedure: Using the data from FIG. 18, particularly the longest straight line of an individual particle and a corresponding perpendicular measurement were made to describe the aspect ratio of particles observed.
Cryo-TEM experiments were performed at Duke University's Shared Materials Instrumentation Facility (Durham, N.C.). Lacey holey carbon grids (Ted Pella, Redding, Calif.) were glow discharged in a PELCO EasiGlow Cleaning System (Ted Pella, Redding, Calif.). A 3 μL drop (10 μM RLPn-ELP80) was deposited onto the grid, blotted for 3 s with an offset of −3 mm, and vitrified in liquid ethane using the Vitrobot Mark III (FEI, Eindhoven, Netherlands). Prior to vitrification, the sample chamber was maintained at 15° C. and 100% relative humidity to prevent sample evaporation. Grids were transferred to a Gatan 626 cryoholder (Gatan, Pleasanton, Calif.) and imaged with a FEI Tecnai G2 Twin TEM (FEI, Eindhoven, Netherlands), operating at 80 keV. Feature sizes and spacing distances were measured in ImageJ by manual measurement of at least 25 particles.

Bounds are passed on as bounds.

B1: RLP40-ELPS80: RLP-ELP block co-polypeptide with Ser guest residue in the corona (protein)
chain: QYPSDGRGQYPSDGRGQYPSDGRGQYPSDGRGQYPSDGRGQYPSDGRGQYPSDGRGQYPSDGRGQYPSDGRGQYPSDGRGQYPSDGRGQYPSDGRGQYPSDGRGQYPSDGRGQYPSDGRGQYPSDGRGQYPSDGRGQYPSDGRGQYPSDGRGQYPSDGRGQYPSDGRGQYPSDGRGQYPSDGRGQYPSDGRGQYPSDGRGQYPSDGRGQYPSDGRGQYPSDGRGQYPSDGRGQYPSDGRGQYPSDGRGQYPSDGRGQYPSDGRGQYPSDGRGQYPSDGRGQYPSDGRGQYPSDGRGQYPSDGRGQYPSDGRGQYPSDGRGGSGVPGSGVPGSGVPGSGVPGSGVPGSGVPGSGVPGSGVPGSGVPGSGVPGSGVPGSGVPGSGVPGSGVPGSGVPGSGVPGSGVPGSGVPGSGVPGSGVPGSGVPGSGVPGSGVPGSGVPGSGVPGSGVPGSGVPGSGVPGSGVPGSGVPGSGVPGSGVPGSGVPGSGVPGSGVPGSGVPGSGVPGSGVPGSGVPGSGVPGSGVPGSGVPGSGVPGSGVPGSGVPGSGVPGSGVPGSGVPGSGVPGSGVPGSGVPGSGVPGSGVPGSGVPGSGVPGSGVPGSGVPGSGVPGSGVPGSGVPGSGVPGSGVPGSGVPGSGVPGSGVPGSGVPGSGVPGSGVPGSGVPGSGVPGSGVPGSGVPGSGVPGSGVPGSGVPGSGVPGSGVPGSGVPGSGVPGSGVP
For B1, in data set [1], the Nagg is 80, the “Rg(nm)” value is listed as 27.2 nm, the “Rh (nm)” value amounted to 33.0 nm and the ρ came to 0.82. Also, in data set [2], the “Spacing (nm)” value is given as 20.0 ± 2.6 nm and the “Core radius (nm)” value stood at 13.1 ± 2.7 nm.

B2: RLP80-ELPS80: RLP-ELP block co-polypeptide with Ser guest residue in the corona (protein)
chain: QYPSDGRGQYPSDGRGQYPSDGRGQYPSDGRGQYPSDGRGQYPSDGRGQYPSDGRGQYPSDGRGQYPSDGRGQYPSDGRGQYPSDGRGQYPSDGRGQYPSDGRGQYPSDGRGQYPSDGRGQYPSDGRGQYPSDGRGQYPSDGRGQYPSDGRGQYPSDGRGQYPSDGRGQYPSDGRGQYPSDGRGQYPSDGRGQYPSDGRGQYPSDGRGQYPSDGRGQYPSDGRGQYPSDGRGQYPSDGRGQYPSDGRGQYPSDGRGQYPSDGRGQYPSDGRGQYPSDGRGQYPSDGRGQYPSDGRGQYPSDGRGQYPSDGRGQYPSDGRGQYPSDGRGQYPSDGRGQYPSDGRGQYPSDGRGQYPSDGRGQYPSDGRGQYPSDGRGQYPSDGRGQYPSDGRGQYPSDGRGQYPSDGRGQYPSDGRGQYPSDGRGQYPSDGRGQYPSDGRGQYPSDGRGQYPSDGRGQYPSDGRGQYPSDGRGQYPSDGRGQYPSDGRGQYPSDGRGQYPSDGRGQYPSDGRGQYPSDGRGQYPSDGRGQYPSDGRGQYPSDGRGQYPSDGRGQYPSDGRGQYPSDGRGQYPSDGRGQYPSDGRGQYPSDGRGQYPSDGRGQYPSDGRGQYPSDGRGQYPSDGRGQYPSDGRGQYPSDGRGGSGVPGSGVPGSGVPGSGVPGSGVPGSGVPGSGVPGSGVPGSGVPGSGVPGSGVPGSGVPGSGVPGSGVPGSGVPGSGVPGSGVPGSGVPGSGVPGSGVPGSGVPGSGVPGSGVPGSGVPGSGVPGSGVPGSGVPGSGVPGSGVPGSGVPGSGVPGSGVPGSGVPGSGVPGSGVPGSGVPGSGVPGSGVPGSGVPGSGVPGSGVPGSGVPGSGVPGSGVPGSGVPGSGVPGSGVPGSGVPGSGVPGSGVPGSGVPGSGVPGSGVPGSGVPGSGVPGSGVPGSGVPGSGVPGSGVPGSGVPGSGVPGSGVPGSGVPGSGVPGSGVPGSGVPGSGVPGSGVPGSGVPGSGVPGSGVPGSGVPGSGVPGSGVPGSGVPGSGVPGSGVPGSGVPGSGVPGSGVP
Turning to B2, in data set [1], the Nagg is on record as 392, the “Rg(nm)” value is on record as 36.0 nm, the “Rh (nm)” value is recorded as 49.4 nm and the ρ came to 0.73. Also, in data set [2], the “Spacing (nm)” value is reported as 27.9 ± 4.0 nm and the “Core radius (nm)” value turned out to be 14.6 ± 2.2 nm.

B3: RLP80-ELPV80: RLP-ELP block co-polypeptide with Val guest residue in the corona (protein)
chain: QYPSDGRGQYPSDGRGQYPSDGRGQYPSDGRGQYPSDGRGQYPSDGRGQYPSDGRGQYPSDGRGQYPSDGRGQYPSDGRGQYPSDGRGQYPSDGRGQYPSDGRGQYPSDGRGQYPSDGRGQYPSDGRGQYPSDGRGQYPSDGRGQYPSDGRGQYPSDGRGQYPSDGRGQYPSDGRGQYPSDGRGQYPSDGRGQYPSDGRGQYPSDGRGQYPSDGRGQYPSDGRGQYPSDGRGQYPSDGRGQYPSDGRGQYPSDGRGQYPSDGRGQYPSDGRGQYPSDGRGQYPSDGRGQYPSDGRGQYPSDGRGQYPSDGRGQYPSDGRGQYPSDGRGQYPSDGRGQYPSDGRGQYPSDGRGQYPSDGRGQYPSDGRGQYPSDGRGQYPSDGRGQYPSDGRGQYPSDGRGQYPSDGRGQYPSDGRGQYPSDGRGQYPSDGRGQYPSDGRGQYPSDGRGQYPSDGRGQYPSDGRGQYPSDGRGQYPSDGRGQYPSDGRGQYPSDGRGQYPSDGRGQYPSDGRGQYPSDGRGQYPSDGRGQYPSDGRGQYPSDGRGQYPSDGRGQYPSDGRGQYPSDGRGQYPSDGRGQYPSDGRGQYPSDGRGQYPSDGRGQYPSDGRGQYPSDGRGQYPSDGRGQYPSDGRGQYPSDGRGGVGVPGVGVPGVGVPGVGVPGVGVPGVGVPGVGVPGVGVPGVGVPGVGVPGVGVPGVGVPGVGVPGVGVPGVGVPGVGVPGVGVPGVGVPGVGVPGVGVPGVGVPGVGVPGVGVPGVGVPGVGVPGVGVPGVGVPGVGVPGVGVPGVGVPGVGVPGVGVPGVGVPGVGVPGVGVPGVGVPGVGVPGVGVPGVGVPGVGVPGVGVPGVGVPGVGVPGVGVPGVGVPGVGVPGVGVPGVGVPGVGVPGVGVPGVGVPGVGVPGVGVPGVGVPGVGVPGVGVPGVGVPGVGVPGVGVPGVGVPGVGVPGVGVPGVGVPGVGVPGVGVPGVGVPGVGVPGVGVPGVGVPGVGVPGVGVPGVGVPGVGVPGVGVPGVGVPGVGVPGVGVPGVGVPGVGVPGVGVP
As for B3, in data set [1], the Nagg came to 693, the “Rg(nm)” value was determined as 94.4 nm, the “Rh (nm)” value is on record as 71.0 nm and the ρ is recorded as 1.31. In data set [2], the “Spacing (nm)” value came out at 29.6 ± 3.8 nm and the “Core radius (nm)” value turned out to be 14.2 ± 2.4 nm.

B4: RLP40-ELPV80: RLP-ELP block co-polypeptide with Val guest residue in the corona (protein)
chain: QYPSDGRGQYPSDGRGQYPSDGRGQYPSDGRGQYPSDGRGQYPSDGRGQYPSDGRGQYPSDGRGQYPSDGRGQYPSDGRGQYPSDGRGQYPSDGRGQYPSDGRGQYPSDGRGQYPSDGRGQYPSDGRGQYPSDGRGQYPSDGRGQYPSDGRGQYPSDGRGQYPSDGRGQYPSDGRGQYPSDGRGQYPSDGRGQYPSDGRGQYPSDGRGQYPSDGRGQYPSDGRGQYPSDGRGQYPSDGRGQYPSDGRGQYPSDGRGQYPSDGRGQYPSDGRGQYPSDGRGQYPSDGRGQYPSDGRGQYPSDGRGQYPSDGRGQYPSDGRGGVGVPGVGVPGVGVPGVGVPGVGVPGVGVPGVGVPGVGVPGVGVPGVGVPGVGVPGVGVPGVGVPGVGVPGVGVPGVGVPGVGVPGVGVPGVGVPGVGVPGVGVPGVGVPGVGVPGVGVPGVGVPGVGVPGVGVPGVGVPGVGVPGVGVPGVGVPGVGVPGVGVPGVGVPGVGVPGVGVPGVGVPGVGVPGVGVPGVGVPGVGVPGVGVPGVGVPGVGVPGVGVPGVGVPGVGVPGVGVPGVGVPGVGVPGVGVPGVGVPGVGVPGVGVPGVGVPGVGVPGVGVPGVGVPGVGVPGVGVPGVGVPGVGVPGVGVPGVGVPGVGVPGVGVPGVGVPGVGVPGVGVPGVGVPGVGVPGVGVPGVGVPGVGVPGVGVPGVGVPGVGVPGVGVPGVGVPGVGVP
For B4, in data set [1], the “shape factor / form factor (Rg/Rh)” value is reported as over 1, the Nagg turned out to be 213, the “Rg(nm)” value is reported as 33.1 nm and the “Rh (nm)” value is on record as 31.7 nm. The ρ in data set [1] was determined as 1.04. Also, in data set [2], the “Spacing (nm)” value is recorded as 19.4 ± 4.4 nm and the “Core radius (nm)” value amounted to 14.5 ± 3.6 nm.

The values are drawn from patent publication US20230093708A1, “PROTEIN NANOPARTICLE DESIGN AND APPLICATION” (Duke University, priority 2020, published 2023).
